In EP1398371A1:

Legend:
human CD81 (human) = human CD81 (human) (UniProt P60033); assay: cell-based or functional assay
[1] = molecular target: HCV E2 glycoprotein of genotype 1a (Hepatitis C virus genotype 1a) (UniProt P27958); assay: cell-based or functional assay

| Substance | inhibition of infection by HCVpp of genotypes 1a and 1b after pre-incubation of the target cells with antibody (30 µg/ml) (human CD81 (human)) [%] | inhibition of infectivity of HCVpp on Huh-7 cells (hCD81-LEL at 4, 8, 16 µg/ml pre-incubated with the particles) [1] [%] |
| --- | --- | --- |
| JS-81 anti-CD81 monoclonal antibody (Pharmingen) | > 90 | – |
| recombinant GST-fusion polypeptide encompassing the large extra-cellular loop (LEL) of human CD81 (from UniProt P60033 113-201) | – | 38 to 54 |
